Experimental data: US20240000838A1 (SIMCERE INNOVATION, published 2024)

Key:
[1] = molecular target: T1, Human CD5 Protein, HisTag (AcroBiosystems, Cat #CD5-H52H5) (human, UniProt P06127 25-372); assay: flow cytometry; CAR-T cells stained with soluble human CD5-His and His-APC antibody
T1 construct: Bought staining reagent, detected with His-APC antibody; also called CD5 antigen; APC labeled CD5 antigen; not shown: His tag
T1 sequence (looked up): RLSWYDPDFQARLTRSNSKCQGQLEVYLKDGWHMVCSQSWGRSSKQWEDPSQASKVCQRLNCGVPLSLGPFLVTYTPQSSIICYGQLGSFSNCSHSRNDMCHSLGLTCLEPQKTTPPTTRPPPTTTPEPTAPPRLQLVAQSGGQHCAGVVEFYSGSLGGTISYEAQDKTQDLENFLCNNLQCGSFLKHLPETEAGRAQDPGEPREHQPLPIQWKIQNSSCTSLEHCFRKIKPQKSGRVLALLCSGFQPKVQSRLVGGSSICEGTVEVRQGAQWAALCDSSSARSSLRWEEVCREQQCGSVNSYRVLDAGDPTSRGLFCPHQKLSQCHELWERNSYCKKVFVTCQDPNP
Method: (§1) CD3 and CD5 are stained with a CD3-FITC antibody (BD Biosciences, #555339) and a CD5-APC antibody (BD Biosciences, #555355) for 30 minutes at R.T. in the dark. CAR5 surface expression is detected by staining with Human CD5 Protein, HisTag (AcroBiosystems, Cat #CD5-H52H5) for 1 hour at R.T., washed and then incubated with His-APC antibody (R&D Systems, IC050A) for 30 minutes at R.T. in the dark. CAR33 expression is stained with CD33 human protein-PE (Sino Biological, 12238-HCCH_P) for 1 hour at R.T. All the staining is performed at 1:10 dilutions. DAPI (Thermo Scientific, Cat #BV-421, 1:5000) is used to stain dead cells before running by the Attune NxT Flow Cytometer (Thermo Fisher Scientific). Data is further analyzed by either using Attune NxT flow software or FlowJo software.

[2] = molecular target: T2, CD33 human protein-PE (Sino Biological, 12238-HCCH_P) (human, UniProt P20138 18-259, PE label); assay: flow cytometry; CAR-T cells stained with CD33 human protein-PE
T2 construct: Bought staining reagent; also called CD33 antigen
T2 sequence (P20138 18-259 limits assumed): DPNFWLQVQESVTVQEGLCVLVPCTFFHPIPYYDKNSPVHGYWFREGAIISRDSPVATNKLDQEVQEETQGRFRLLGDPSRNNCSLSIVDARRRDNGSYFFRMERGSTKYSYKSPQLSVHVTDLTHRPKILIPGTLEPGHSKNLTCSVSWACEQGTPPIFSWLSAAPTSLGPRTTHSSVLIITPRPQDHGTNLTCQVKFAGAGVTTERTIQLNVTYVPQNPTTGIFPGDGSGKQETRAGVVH
Method: as §1

B1: CD5 CAR CAR5-2, construct S006 (other)
chain: NIQLVQSGPELKKPGETVKISCKASGYTFTNYGMNWVKQAPGKGLRWMGWINTHTGEPTYADDFKGRFAFSLETSASTAYLQINNLKNEDTATYFCTRRGYDWYFDVWGAGTTVTVSSGGGGSGGGGSGGGGSDIKMTQSPSSMYASLGERVTITCKASQDINSYLSWFHHKPGKSPKTLIYRANRLVDGVPSRFSGSGSGQDYSLTISSLDYEDMGIYYCQQYDESPWTFGGGTKLEMKASTTTPAPRPPTPAPTIASQPLSLRPEACRPAAGGAVHTRGLDFACDIYIWAPLAGTCGVLLLSLVITLYCKRGRKKLLYIFKQPFMRPVQTTQEEDGCSCRFPEEEEGGCELRVKFSRSADAPAYKQGQNQLYNELNLGRREEYDVLDKRRGRDPEMGGKPRRKNPQEGLYNELQKDKMAEAYSEIGMKGERRRGKGHDGLYQGLSTATKDTYDALHMQALPPR
notes: Chimeric antigen receptor on T cells
% of T cells stained with CD5 antigen (CAR5 expression) [1]: > 80%

B2: CD33 CAR CAR33-2, construct S012 (other)
chain: QVQLVQSGAEVKKPGSSVKVSCKASGYTFTDYNMHWVRQAPGQGLEWIGYIYPYNGGTGYNQKFKSKATITADESTNTAYMELSSLRSEDTAVYYCARGRPAMDYWGQGTLVTVSSGGGGSGGGGSGGGGSDIQMTQSPSSLSASVGDRVTITCRASESVDNYGISFMNWFQQKPGKAPKLLIYAASNQGSGVPSRFSGSGSGTDFTLTISSLQPDDFATYYCQQSKEVPWTFGQGTKVEIKASTTTPAPRPPTPAPTIASQPLSLRPEACRPAAGGAVHTRGLDFACDIYIWAPLAGTCGVLLLSLVITLYCKRGRKKLLYIFKQPFMRPVQTTQEEDGCSCRFPEEEEGGCELRVKFSRSADAPAYKQGQNQLYNELNLGRREEYDVLDKRRGRDPEMGGKPRRKNPQEGLYNELQKDKMAEAYSEIGMKGERRRGKGHDGLYQGLSTATKDTYDALHMQALPPR
notes: as for B1
binding result [2]: binds

B3: CD5 CAR CAR5-6, construct S010 (other)
chain: EIQLVQSGGGLVKPGGSVRISCAASGYTFTNYGMNWVRQAPGKGLEWMGWINTHTGEPTYADSFKGRFTFSLDDSKNTAYLQINSLRAEDTAVYFCTRRGYDWYFDVWGQGTTVTVSSGGGGSGGGGSGGGGSDIQMTQSPSSLSASVGDRVTITCRASQDINSYLSWFQQKPGKAPKTLIYRANRLESGVPSRFSGSGSGTDYTLTISSLQYEDFGIYYCQQYDESPWTFGGGTKLEIKASTTTPAPRPPTPAPTIASQPLSLRPEACRPAAGGAVHTRGLDFACDIYIWAPLAGTCGVLLLSLVITLYCKRGRKKLLYIFKQPFMRPVQTTQEEDGCSCRFPEEEEGGCELRVKFSRSADAPAYKQGQNQLYNELNLGRREEYDVLDKRRGRDPEMGGKPRRKNPQEGLYNELQKDKMAEAYSEIGMKGERRRGKGHDGLYQGLSTATKDTYDALHMQALPPR
notes: as for B1
% of T cells stained with CD5 antigen (CAR5 expression) [1]: > 80%
